# From patent US20240166738A1 (Alector, published 2024)
# Biological target: human TMEM106B (human, UniProt Q9NUM4 2-274)
# Test: cell-based or functional assay
# Further: test concentration or dose not given here.
row,Binder,% Protection from CPE
1,"TM-17 (antibody, V domains shown) VH: QVQLQQSGAELIRPGTSVKVSCKASGYAFTDYLIEWVKQRPGQGLEWIGVINPGSGGTNYNEKFKGKAKLTADKSSSTAYMQLSSLTSEDSAVYFCVRSSYGVYVAYPMDYWGQGTSVTVSS VL: DIQMTQSPSSLSASLGERVSLTCRASQDIGSNLNWLQQEPDGTIKRLIYATSSLDSGVPKRFSGSRSGSDYSLTISSLESEDFVDYYCLQYASSPRTFGGGTKLEIK",3.7%
2,"TM-18 (antibody, V domains shown) VH: EVRLQQSGPELVKPGASVKISCKTSGYTFTDYYMNWVKQSHGKSLEWIVNINPNNGDAFYNQKFKGKATLTVDKSSNTAYLDLRSLTSEDSAVYYCAREGQLRLRRVYAMDYWGQGTSVTVSS VL: DIVLAQSPASLAVSLGQRATISCRASKSVSISVYTYVHWYQQKPGQPPKLLIYLASNLESGVPARFSGSGSGTDFTLNIHPVEEEDAATYYCQHSRELPYTFGGGTKLEIK",100%
3,"TM-50 (antibody, V domains shown) VH: QVQLKESGPVLVAPSQSLSITCTVSGFSLTNYGVHWVRQPPGKGLEWLGVIWAGGNTNYNSALMSRLSISKDNSKSQVFLKMNSLQTDDTAMYYCAKEAKLLRSYAMDYWGQGTLVTVSA VL: DVQMTQTTSSLSASLGDRVTISCRASQDINNYLYWYQQKPDGTVKLLIYYTSMLHSGVPSRFSGSGSGTDYSLTISNLEQEDIATYFCQQGSTLMYTFGGGTKLEIK",3.9%
4,"TM-79 (antibody, V domains shown) VH: EVQLQQSGPELVKPGASVKMSCKASGYTFTNYVMHWLKQKPGQGLEWIAHITPHNDGTKYNEKFKGKATLTSDRSSSTAYMELNSLTSEDSAIYYCARSGQFGRGDYFHYWGQGTTVTVSS VL: DIVLTQSPASLAVSLGQRATISCRASKSVSTSGSIYIHWYQQKPGQPPKLLIYLTSNLESGVPARFSGSGSGTDFTLNIHPVEEEDAATYYCQHSGELPWTFGGGARLEIK",4.5%
5,"TM-74 (antibody, V domains shown) VH: EVQLQQSGPELVKPGASVKMSCKASGYTFTSYVIHWVKQKPGQGLEWIGFINPNNDGTKYNEKFRGKATLTSDKSSSTAYMELSSLTSEDSAVYYCARPYYDYEGYTMDYGGQGTSVTVSS VL: DVVMTQSQKFMSTSVEDRVSITCKASQNVRSAVAWYQQKPGQSPKALIYLASNRHTGVPDRFAGSGSGTDFTLTISSVQSEDLADYFCLQHWKYPFTFGSGTKLEIK",3.7%
6,"TM-1 (antibody, V domains shown) VH: QVQLQQSGAELVRPGTSVKVSCKASGYAFTNYLIEWVKQRPGQGLEWIGVINPGSGGTKYNEKLKGKATLTADKSSSTAYMQLSSLTSVDSAVYFCARRGYTIYDFYAMDYWGQGTSVTVSS VL: DVLMTQTPLSLPVSLGDHASISCRSSQSIVYNNGNTYLEWYLQKPGQSPKLLIYKVSNRFSGVPDRFSGSGSGTDFTLKISRVEAEDLGVYYCFQVSHVPFTFGSGTKLEIK",6.4%
7,"TM-22 (antibody, V domains shown) VH: QVQLQQSGPELVKPGASVKISCKASGYRFTSYYIHWVKQRPGQGLEWIGWIYPGNGITNYNEKFKGKATLTADTSSSTAYMQLSSLTSEDSAVYYCASPYYGIRNCYFDVWGTGTTVTVSS VL: DVLMTQTPLSLPVSLGDHASISCRSGQSIVHSNGNTYLEWYLQKPGQSPKLLIYKVSNRFSGVPDRFSGSGSGTDFTLKISRVEAEDLGIYYCFQGSHVPWTFGGGTKLEIK",4.4%
8,"TM-19 (antibody, V domains shown) VH: DVQLQQSGAELVRPGASVKLSCTASGFNIKDYYMYWVKQRPEQGLEWIGRIDPEDGDTENAPKFRGMATMTADTSSNTAYLQLNSLTSEDTAVYYCTTRIGNLYHVMDYWGHGTSVTVSS VL: DVLMTQTPLSLPVSLGDQASISCRSSQSIVHSNGNTYLEWYLQKPGQAPKLLIDKVFNRFSGVPDRFSGSGSGTDFTLKISRVEAEDLGVYYCFQGSHVPFTFGSGTKLEIK",99.8%
9,"TM-34 (antibody, V domains shown) VH: EVQLVESGGGLVKPGGSLKLSCAASGFSFSDSGMDWVRQAPEKGLEWFAYISSGSSTTHYADTVKGRFIISRDNAKNTLFLQMTSLRSEDTAMYYCVRRDGNYWYFDVWGTGTTVTVSS VL: QIVLSQSPVILSASPGEKVTMTCRATSSVTYMHWYQLKPGSSPKPWIYATSNLASGVPARFSGSGSGTSYSLTISRVEAEDAATYYCQQWSSNPYTFGGGTKLEIK",4.1%
10,"TM-4 (antibody, V domains shown) VH: EVQVQQSGPVLVKPGASVKMSCKASGYTFTDYYMNWVKQSHGKNLEWIGVINPYNGGTSYHQKFKGKATLTVDKSSSTAYMELNSLTSEDSAVYYCARAATVVAGFDYWGQGTTLTVSS VL: QAVVTQESALTTSPGETVTLTCRSSTGAVTTSNYANWVQEKPDHLFTGLIGGTNNRAPGVPARFSGSLIGDKAALTITGAQTEDEAIYFCVLWYSNHLVFGGGTKLTVL",3.7%
11,"TM-77 (antibody, V domains shown) VH: QIQLQQSGAELVRPGASVKLSCKASGYTFTDYEMHWVKQTPVHGLEWIGVIDPETGGTAYNQMFKGKATLTADKSSSTAYMDLRSLTSEDSAVYYCVKYGIEGYWGQGTTLTVSS VL: DVVMTQIPLTLSVTLGQPASISCKSSQSLFHSNGKTYLNWLLQRPGQSPKLLIYMVSKLESGVPDRFSGSGSGTDFTLKISRVEAEDLGVYYCLQVTHFPLTFGAGTKLELK",4.7%
12,"TM-51 (antibody, V domains shown) VH: QVQLQQPGAELVKPGASVKLSCKASGYTFTTYWIDWVKQRPGQGLEWIGNMFPGSSRTNYNEKFKSRATLTVDTSSSTAYMQLSSLTSDDSAVYYCARKEGLWTYGYDGGAWFAYWGQGTLVTVSA VL: DIVMSQSPSSLAVSVGEKVTMSCKSSQSLRNSRTRKNYLAWYQQKPGQSPKLLIYWASTRESGVPDRFTGSGSGTDFTLTISSVQAEDLAIYYCKQSYNLLTFGAGTKLELK",5.4%
13,"TM-39 (antibody, V domains shown) VH: HVQRQQSGTELAKPGASVKLSCKTSGYTFTDYWMHWIKQRPGQGLEWIGFINPSSGYTKYNQNFKDKATLTADKSSSTAYMQLSSLTYEDSAVFYCAREAGSISDWYFDVWGTGTTVTVSS VL: DIVMTQAAPSIPVTPGESVSISCRSSKTLLNSNGNTYLYWFLQRPGQPPQLLIYRMSNLASGVPDRFSGSGSGTAFTLRISRVEAEDVGVYYCMQHLDYPYTFGGGTQLEIK",4.2%
14,"TM-41 (antibody, V domains shown) VH: EVQLQQSGAELVKPGASIKLSCTASGFNIKDCYMHWVKQRTEQGLEWIGRIDPEDGTTNFAPKFQDRATITADTSSNTAYLQLTSLTSEDTAVYYCAREWDSGAYWGQGTLVTVSA VL: not shown",3.5%
15,"TM-83 (antibody, V domains shown) VH: QVQLQQPGTELVKPGALVKLSCKASGYTFTTYWIHWVKQRPGQGLEWIGNINPSNGNTKNNERFKTKATLTVDKSSSTAYMQLSSLTSEDSAVYYCVRGDYYGTSYPFWGQGTLVTVSS VL: DVVMTQTPLSLPVSLGDQASISCRSSQSLVHSNGITYLHWYLQKPGQSPKLLIYKVSNRFSGVPDRFSGSGSGTDFTLKISRVEAEDLGVYFCSQSTHVPYTFGGGTKLEIK",4.3%
16,"TM-3 (antibody, V domains shown) VH: QVTLKESGPGIVQPSQTLSLTCSFSGFSLNTLGRGVGWIRQPSGKGLEWLAKIWWNDDKFYYPALKSRLTISKDTSKNQIFLKIANVDTADSATYYCARIAGGTGAAYWGQGTTLTVSS VL: DIVMTQAAFSNPVTLGTSASISCRSSKSLLHSNGITYLYWYLQKPGQSPQLLISQMSSLASGVPDRFSSGGSGTDFTLRISRVEAEDVGVFYCAQNLELPWTFGGGTKLELK",97.2%
17,"TM-9 (antibody, V domains shown) VH: EVQLVESGGDLVKPGGSLKLSCVASGFTFSGYGMSWVRQTPDKRLEWVATISSGSFYIYYPDSVKGRLTVSRDNAKNTLYLQMSSLKSEDTAIYYCARQNFYYGCEDYWGQGTTLTVSS VL: DIVMTQAAFSNPVTLGTSASISCRSSKSLLHSNGITYLYWYLQKPGQSPQLLIYQMSNLASGVPNRFSSSGSGTDFTLRISRVEAEDVGVYYCAQNLELPWTFGGGTKLEIK",96.4%
18,"TM-46 (antibody, V domains shown) VH: QVQLQQSGADLVKPGASVKISCKASGYAFSSFWMNWVKLRPGKGLEWIGQIYPGDGDTDYNGKFKDKATLTADTSSNTAYMQLSRLTSEDSAVYFCARGDGFSYFDYWGQGTILTVSS VL: QIVLTQSPVIMSASPGERVTMTCCASSRVNYMHWYQQKSGSYPKRWIYDTSKLASGVPGRFSGSGSGTSYSLTISSMEAEDAATYYCQQWSSNPPTFGGGTKLEIK",4.7%
19,"TM-7 (antibody, V domains shown) VH: EVQLQQSGPVLVKPGPPVKISCKASGFTFTDYYIHWVKLSHGKSLEWIGLVYPYNGDTDYNQKFKGKATLTVDTSSSTAYMELNSLTSEDSAVYYCARTYYANSPDYWGQGTTVTVSS VL: DIVMTQSPSSLSVSAGEKVTMSCKSSQSLLNSGNQRNYLAWYQQKPGQPPKLLIYGASTRESGVPDRFTGSGSGTDFTLTISNVQAEDLAVYYCQNDHSYPLTFGAGTKLELK",15.8%
20,"TM-47 (antibody, V domains shown) VH: QVQLKESGPVLVAPSQSLSITCTVSGFSLTNYGVHWVRQPPGKGLEWLGVIWAGGNTNYNSALMSRLSISKDNSKSQVFLKMNSLQTDDTAMYYCAKEAKLLRSYAMDYWGQGTSVTVSS VL: DIVMTQSPSSLTVTAGEKVTMSCKSSQSLLNSGNQKNYLTWYQQKPGQPPKLLIYWASTRESGVPDRFTGSGSGTDFTLTISSVQAEDLAVYYCQNDYSYPLTFGAGTKLEIK",3.8%
21,"TM-26 (antibody, V domains shown) VH: QVQLQQSGAELIRPGTSVKVSCKASGYAFTNYLIEWVKKRPGQGLEWIGVINPGSGITNYNEKFKGKATLTADKSSSTAYMQLSSLTSEDSAVYFCARSDFITTVVADYWGQGTTVTVSS VL: DIVVTQTPLSLPVSFGDQVSISCRSSQSLTNYYGNTYLSWYLHKPGQSPQLLIYGISNRFSGVPDRFSGSGSGTDFTLKISTIKPEDLGMYYCLQGTHQPRTFGGGTKLEIK",4.3%
22,"TM-23 (antibody, V domains shown) VH: QVQLQQSGAELIRPGTSVKVSCKASGYAFTNYLIEWVKKRPGQGLEWIGVINPGSGITNYNEKFKGKATLTADKSSSTAYMQLSSLTSEDSAVYFCARSDFITTVVADYWGQGTTVTVSS VL: DIVVTQTPLSLPVSFGDQVSISCRSSQSLTNYYGNTYLSWYLHKPGQSPQLLIYGISNRFSGVPDRFSGSGSGTDFTLKISTIKPEDLGMYYCLQGTHQPRTFGGGTKLEIK",3.7%
